Experimental data taken from the emibetuzumab library of Makowski et al. (2022).

B1: VH:VL chains; a variant is named by its letters at X, in order (parent)
chain 1: QVQLVQSGAEVKKPGASVKVSCKASGYTFTDYXMHWVRQAPGQGLEWMGXVNPNXXXTTYNQKFEGRVTMTTDTSTSTAYMELRSLRSDDTAVYYCARXNXLDXWGQGTTVTVSS
chain 2: DIQMTQSPSSLSASVGDRVTITCSVSSSVSSIYLHWYQQKPGKAPKLLIYSTSNLASGVPSRFSGSGSGTDFTLTISSLQPEDFATYYCQVYSGYPLTFGGGTKVEIK

Variants of: B1
Experiment: yeast display scFab, FACS + sequencing
Summary of the method: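 Non-specific binding was called from deep sequencing of sorted yeast cells displaying a heavy-chain CDR mutant scFab library. Cells labelled with anti-Myc and biotinylated ovalbumin (260 μg/mL in PBSB, 3 h, room temperature) or soluble membrane proteins (130 μg/mL, 20 min on ice) were FACS-sorted, collecting the top 25% and bottom 10% of binders from two replicates. A sequence was positive when present in ≥3 of 4 pooled positive samples and absent from all negatives, and negative under the converse rule.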

| Variant | non-specific binding call |
| --- | --- |
| AKGTASGD | binds |
| FKGRGSGY | binds |
| FKGRGSGV | binds |
| DKGRSVGV | no binding |
| VKGRGYGA | binds |
| YKGRGAVS | binds |
| YKGRGFGD | binds |
| SKGRSSLA | no binding |
| YKGRGFAY | binds |
| VKGTGVAY | binds |
| FKGRGSLS | binds |
| FKGRGSLY | binds |
| FKGRGSLA | binds |
| VKGRGSLF | binds |
| YKKESDSY | no binding |
| SKGRSSWS | binds |
| FKGRGAWS | binds |
| FKGRGAWV | binds |
| VKGRGFWY | binds |
| VKGRSVGY | binds |
| SKGTDDWV | no binding |
| VKKEDAGD | no binding |
| VKGRGVGY | binds |
| VKGRGVGA | binds |
| YKGRGSWS | binds |

| Variant | non-specific binding call |
| --- | --- |
| YKGRGSWF | binds |
| VKKESDSY | no binding |
| VKGRSDGV | no binding |
| YKGRGYLV | no binding |
| FKGRGFGV | binds |
| SKGRGSAA | binds |
| YKGRGYSY | binds |
| SKGRGAVY | binds |
| VKGRGAWA | binds |
| VKGRGAWY | binds |
| DKGRGSSA | no binding |
| YKGRGVGA | binds |
| YKGRGVGV | binds |
| YKGRGVGY | binds |
| YKGRGVGD | binds |
| VKGRSDAS | no binding |
| VKGRGDAA | no binding |
| YKGRGDWY | binds |
| YKGRSSSS | binds |
| YKGRGDAD | binds |
| FKGRGFVV | binds |
| FKGTDSSD | binds |
| YKGRGDGD | no binding |
| YKGRGDGY | binds |
| DKKEDSAD | no binding |

| Variant | non-specific binding call |
| --- | --- |
| FKGRGSSS | binds |
| SKGRSDAV | no binding |
| VKGRGASV | binds |
| YKGRGASS | binds |
| YKGRGASA | binds |
| YKGRGASD | binds |
| YKGRGASV | binds |
| YKGRGSAY | binds |
| YKGRGSAF | binds |
| VKKESSGF | binds |
| VKGRGDSF | no binding |
| FKKEGYGD | binds |
| VKGRSDVY | no binding |
| YKGRGSVD | binds |
| YKGRGSVY | binds |
| FKGRGDGS | binds |
| VKGRSDSA | no binding |
| VKGRSFLV | binds |
| DKGRSAGD | no binding |
| VKGRGSGS | binds |
| FKGRGAVD | binds |
| FKGRGAVY | binds |
| YKGRSAVY | binds |
| SKGRSDVF | no binding |
| SKGRSDVY | no binding |

| Variant | non-specific binding call |
| --- | --- |
| SKGRSDVV | no binding |
| SKGRSDVS | no binding |
| YKGRGSLY | binds |
| YKGRGSLV | binds |
| YKGRGSLF | binds |
| YKGRGSLA | binds |
| VKGRGSVF | no binding |
| FKGRGVWV | binds |
| SKKEDSAD | no binding |
| YKGRGVVV | binds |
| VKGRGFAA | binds |
| YKGRGALS | binds |
| YKGRGALY | binds |
| VKGRSDWV | no binding |
| YKGRGYAA | binds |
| YKGRGYAV | binds |
| YKGRGYAD | binds |
| VKGTGFLD | binds |
| YKGRGYWY | binds |
| YKGRGFWA | binds |
| VKKEDDVV | no binding |
| YKGRSAAA | binds |
| YKGRGYVA | binds |
| SKGRSDGV | no binding |
| SKGRSDGA | no binding |

| Variant | non-specific binding call |
| --- | --- |
| YKGRGFSD | binds |
| VKGRGSSF | no binding |
| DKGTDVGA | binds |
| FKGRSASY | binds |
| FKGRGSAA | binds |
| FKGRGSAD | binds |
| VKGRGSAY | binds |
| VKGRGSAD | binds |
| VKGRGSAA | binds |
| YKGRGYGD | binds |
| YKGRGYGA | binds |
| YKGRGYGF | binds |
| YKGRGFVY | binds |
| VKGRGVVD | binds |
| SKGRGAWD | binds |
| SKGRGAWV | binds |
| YKGTDAWY | no binding |
| AKGRGDGA | no binding |
| VKGRTSVY | no binding |
| VKGTDAWY | no binding |
| YKGRSASV | no binding |
| VKGRGSWS | binds |
| VKGRGSWY | binds |
| VKGRGSWA | binds |
